# Source: patent publication US20250136910A1, “DEVICES FOR USE AS BLOOD BRAIN BARRIER MODELS” (Merck Sharp & Dohme LLC, priority 2023, published 2025)
# Key:
# GFP HBMECs = test: Ang-1 addition to perfusion media, serpentine gel endothelialized with GFP HBMECs; assay type: cell-based, human; settings: complete Vasculife 3 days, then Ang-1 at 15 ng/ml for 3 days; perfused at 5 μL min^−1; day 6
# Protocol: GFP HBMECs was seeded in the vascular channel at 30M mL^−1and perfused at 5 μL min^−1for duration of the study. […] Overlay and individual channels of GFP HBMEC and VE-Cadherin shown.
# Once this was confirmed using HUVECs, the incorporation of Ang-1 to the perfusion media was tested on a gel endothelialized with GFP HBMECs. The same strategy was employed where the gel was perfused for 3 days with complete Vasculife media, then switched to a Vasculife media where Ang-1 was added in at 15 ng/ml for the remaining three days of perfusion culture. Images of cell morphology in the serpentine on days 3, 6, and after fixing and immunostaining for VE-Cadherin are seen in FIG. 26a. […] A magnified portion of the center channel is shown in FIG. 26b, which highlights the morphology of the GFP HBMECs and VE-Cadherin and includes nuclei in the overlay.
# GFP HUVECs = test: Ang-1 addition to perfusion media, channels endothelialized with GFP HUVECs; assay type: cell-based, human; settings: complete Vasculife (with VEGF) 3 days, then Ang-1 added 15 ng mL^−1; perfused at 5 μL min^−1
# Protocol: FIGS. 25a-25c show immunostained VE-Cadherin junctions for channels endothelialized with GFP HUVECs (30M mL^−1) after being exposed to different media compositions. […] This gel was sustained for a total of twelve days while being perfused at 5 μL min^−1.
# For the HUVECs, a mature monolayer was able to be obtained through modulation of the media composition and utilizing biomolecules that play an important role in endothelial cell function. In addition to the removal of VEGF, another avenue explored was the addition of Angiopoetin-1 (Ang-1). Angiopoetin-1 is a glycoprotein that is a known ligand for the endothelial cell-specific receptor tyrosine kinase, Tie-2 receptor. In vascular development during embryogenesis, VEGF and Ang-1 play essential and complementary roles. Vascular endothelial growth factor (VEGF) is responsible for the initial formation of the vascular plexus, while Angiopoetin-1 (Ang-1) is responsible for the subsequent remodeling of the vasculature into a network of mature vessels. […] The incorporation of this glycoprotein was first assessed using hydrogels endothelialized with GFP HUVECs. Three different media strategies were employed to assess the effect of adding Ang-1 to the perfusion media. […]
molecule,measurement,setting,value
"Ang-1: glycoprotein that is a known ligand for the endothelial cell-specific receptor tyrosine kinase, Tie-2 receptor (protein, UniProt Q15389 16-498, looked up) Angiopoietin-1: HIGCSNQRRSPENSGRRYNRIQHGQCAYTFILPEHDGNCRESTTDQYNTNALQRDAPHVEPDFSSQKLQHLEHVMENYTQWLQKLENYIVENMKSEMAQIQQNAVQNHTATMLEIGTSLLSQTAEQTRKLTDVETQVLNQTSRLEIQLLENSLSTYKLEKQLLQQTNEILKIHEKNSLLEHKILEMEGKHKEELDTLKEEKENLQGLVTRQTYIIQELEKQLNRATTNNSVLQKQQLELMDTVHNLVNLCTKEGVLLKGGKREEEKPFRDCADVYQAGFNKSGIYTIYINNMPEPKKVFCNMDVNGGGWTVIQHREDGSLDFQRGWKEYKMGFGNPSGEYWLGNEFIFAITSQRQYMLRIELMDWEGNRAYSQYDRFHIGNEKQNYRLYLKGHTGTAGKQSSLILHGADFSTKDADNDNCMCKCALMLTGGWWFDACGPSNLNGMFYTAGQNHGKLNGIKWHYFKGPSYSLRSTTMMIRPLDF",endothelium confluence by VE-Cadherin immunostaining,GFP HBMECs,a confluent endothelium of brain microvascular endothelial cells lining the serpentine channel has been achieved
same,endothelial monolayer retention in perfusion culture,GFP HUVECs,retained an endothelial monolayer for twelve days of perfusion culture
